Laboratory results: patent publication US11091559B2, “Anti-ALK antibodies and methods for use thereof” (Celldex Therapeutics, Inc., priority 2015, dated 2021)
Residue numbers refer to the chain shown, from its start. Values belong to the molecule of their own block, whether it stands above or below them.

Legend:
[1] = test system: ALK on the surface of NB1 cells; assay: KD determination by flow cytometry on NB1 cells; format: binding; conditions: NB1 (human) cells, FACS, mean
Experimental: FIG. 3 depicts the apparent affinities (KD) of ALK antibodies for ALK expression on the surface of NB1 cells. KD was determined by flow cytometry. Titration of each antibody on NB1 cells for 2-4 hours at 4° C. was followed by incubation with a fluorescently-labeled secondary antibody. The normalized mean fluorescent intensity […] shown as “% Max binding” was plotted as a function of antibody concentration.
Flow cytometry was utilized to measure the affinity at steady state (KD) with which different ALK antibodies bind to ALK on the surface of NB1 cells (FIG. 3). Titration of each antibody on NB1 cells for 2-4 hours at 4° C. was followed by incubation with a fluorescently-labeled secondary antibody. The normalized mean fluorescent intensity (MFI) shown as “% Max binding” was plotted as a function of antibody concentration. The data were fit to a one site binding isotherm using GraphPad Prism, from which affinity values were derived.
(§1) Amino acid residues that differ between rat ALK and mouse ALK are boxed. KD values for both NB1 (human) cells and Neuro2a (mouse) cells were also determined.

[2] = biological target: human ALK (hALK, purified ALK protein) (Homo sapiens, UniProt Q9UM73); assay: Monovalent affinity of humanized antibodies, BLitz System, human ALK; format: binding; conditions: for Kd: BLitz, purified ALK protein at 70 μg/mL, single binding site fit, antibody by plate position of Table 19; for potency estimated from few doses: single dose kinetics
Experimental: The humanized ALK antibodies designed in Example 1 were tested for monovalent affinity, wherein the kinetic data are fit to a single binding site equation to obtain relative affinity values.
(§2) Kinetic measurements of the monovalent affinity of the 96 humanized ALK antibody variants (Ab351-Ab446) were collected. Affinity ranking was performed using a BLitz® System (ForteBio, Menlo Park, Calif.). Humanized anti-ALK antibodies were immobilized at 0.5 mg/mL using Protein A tips. Once baseline stability was ensured, purified ALK proteins at 70 μg/mL were added. The resulting kinetic data were fit to a single binding site equation, from which the quoted monovalent KD values were derived.
as §1

[3] = biological target: T1, cell surface mALK on Neuro2a cells (Mus musculus, UniProt P97793); assay: KD of humanized antibodies on Neuro2a (mouse) cells; format: binding; conditions: FACS, mean
T1 construct: Neuro-2a cells that express low levels of endogenous murine ALK; endogenous in cells; host or cells: Neuro-2a (Neuro2a) mouse neuroblastoma cells
Experimental: as §1

mouse ALK (mALK) = biological target: T2, mouse ALK (mALK) (Mus musculus, UniProt P97793); assay: Monovalent affinity of humanized antibodies, BLitz System, mouse ALK; format: binding; conditions: single dose kinetics
T2 construct: mouse ALK (mALK)
Experimental: as §2, §1

[4] = biological target: murine ALK (purified mouse ALK antigen) (Mus musculus, UniProt P97793); assay: Mouse ALK cross-reactivity, solid-state ELISA; format: binding; set-up: key: − none; + weak; ++ moderate; +++ strong; conditions: cross-reactivity with murine ALK
Experimental: Purified mAbs were evaluated for their ability to bind murine ALK by solid-state ELISA, or flow cytometry on Neuro-2a cells that express low levels of endogenous murine ALK. […]

[5] = biological target: C-terminal region of human ALK ECD (T637-S1038) (Homo sapiens, UniProt Q9UM73); assay: Competitive binding assay (epitope binning) by flow cytometry; conditions: antibodies to the C-terminal region
Experimental: Antibodies that bind to the C-terminal region of human ALK ECD (T637-S1038) were further characterized using a competitive binding assay. A pairwise matrix approach was used whereby each antibody was fluorescently labeled and tested for its ability to bind to ALK-expressing cells pre-incubated with an unlabeled antibody. The ability of both antibodies to bind the C-terminal domain simultaneously was tested via flow cytometry. If both antibodies bound simultaneously, they were put into different bins and considered to belong to a separate epitope class.

[6] = test system: ALK (basal phosphorylation in NB1 cells); assay: Western blot of ALK phosphorylation in NB1 cells; format: cell-based, human; conditions: for ALK phosphorylation: effect in words
Experimental: Lysed cells were subjected to SDS-PAGE, transferred to nitrocellulose and immunoblotted with antibodies against total, and phospho-specific ALK, AKT, and MAPK. FIG. 4B depicts an ELISA of NB1 cells grown in media with reduced serum and treated with 30-100 nM of each antibody for 1-2 hours. Cell lysates were incubated on ELISA plates with an anti-ALK antibody, followed by incubation with a pan phosphotyrosine antibody coupled to HRP.
Cell lysates were subjected to SDS-PAGE and transferred to nitrocellulose. Immunoblotting was performed with antibodies against total, and phospho-specific ALK, AKT, and MAPK (purchased from Cell Signaling and utilized per manufacturer's instructions). HRP (horse radish peroxidase)-conjugated secondary antibodies (Thermo Scientific, Waltham, Mass.) were used along with Supersignal West Pico Chemiluminescent Substrate (Thermo Scientific, Waltham, Mass.) to image blots.
Anti-ALK monoclonal antibodies generated in Example 1 were evaluated via Western blotting for their ability to activate or inhibit basal levels of ALK phosphorylation in NB1 cells (FIG. 4A). A subset of ALK antibodies stimulated ALK tyrosine phosphorylation and a different subset of antibodies inhibited basal levels of ALK phosphorylation. See also Table 18, below. […] That is, ALK antibodies that stimulated ALK tyrosine phosphorylation increased MAPK and AKT phosphorylation, whereas ALK antibodies that inhibited ALK tyrosine phosphorylation decreased basal levels of MAPK and AKT phosphorylation (FIG. 4A). Similar results were obtained in ELISA-based ALK phosphorylation assays from lysates of NB1 cells treated with ALK antibodies (FIG. 4B).

[7] = test system: ALK (total protein levels in NB1 cells); assay: ALK turnover (total protein levels) by Western blot, 24 hour treatment of NB1 cells; format: cell-based, human; set-up: key: − none; + weak; ++ moderate; +++ strong
Source text: FIG. 5 depicts a Western blot of a panel of ALK antibodies.
See also Table 18, below.

NB1 cells = assay: Crizotinib titration and co-titration with ALK antibodies, killing of NB1 cells; format: cell-based, human

Sequence of human ALK (hALK, purified ALK protein) (Q9UM73 with tags, fused parts or gaps): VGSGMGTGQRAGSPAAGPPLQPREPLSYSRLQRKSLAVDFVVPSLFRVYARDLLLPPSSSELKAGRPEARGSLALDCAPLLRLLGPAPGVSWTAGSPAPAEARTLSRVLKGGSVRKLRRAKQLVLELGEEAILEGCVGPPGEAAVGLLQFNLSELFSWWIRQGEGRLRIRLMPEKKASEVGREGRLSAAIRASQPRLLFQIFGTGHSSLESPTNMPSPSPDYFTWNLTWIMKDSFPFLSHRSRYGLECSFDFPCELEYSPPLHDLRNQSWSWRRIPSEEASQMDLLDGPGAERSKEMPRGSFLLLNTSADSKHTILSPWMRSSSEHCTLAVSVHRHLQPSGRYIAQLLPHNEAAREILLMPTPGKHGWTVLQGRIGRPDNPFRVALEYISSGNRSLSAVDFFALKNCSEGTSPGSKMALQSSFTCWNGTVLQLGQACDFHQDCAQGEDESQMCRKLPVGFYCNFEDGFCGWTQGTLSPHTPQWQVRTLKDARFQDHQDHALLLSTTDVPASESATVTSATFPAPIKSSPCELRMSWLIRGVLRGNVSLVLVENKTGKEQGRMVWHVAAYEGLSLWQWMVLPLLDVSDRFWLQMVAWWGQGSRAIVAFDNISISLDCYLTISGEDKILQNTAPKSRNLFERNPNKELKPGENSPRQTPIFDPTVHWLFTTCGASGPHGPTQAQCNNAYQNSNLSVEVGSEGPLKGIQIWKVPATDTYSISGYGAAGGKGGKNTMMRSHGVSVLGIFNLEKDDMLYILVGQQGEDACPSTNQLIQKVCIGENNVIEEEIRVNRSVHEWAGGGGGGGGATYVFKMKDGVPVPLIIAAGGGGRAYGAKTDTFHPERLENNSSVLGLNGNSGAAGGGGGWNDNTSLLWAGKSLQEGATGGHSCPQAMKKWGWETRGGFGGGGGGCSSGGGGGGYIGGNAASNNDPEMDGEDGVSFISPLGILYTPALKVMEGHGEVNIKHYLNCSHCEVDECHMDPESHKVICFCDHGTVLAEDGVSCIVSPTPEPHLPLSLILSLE
T1 sequence (P97793 19-1621): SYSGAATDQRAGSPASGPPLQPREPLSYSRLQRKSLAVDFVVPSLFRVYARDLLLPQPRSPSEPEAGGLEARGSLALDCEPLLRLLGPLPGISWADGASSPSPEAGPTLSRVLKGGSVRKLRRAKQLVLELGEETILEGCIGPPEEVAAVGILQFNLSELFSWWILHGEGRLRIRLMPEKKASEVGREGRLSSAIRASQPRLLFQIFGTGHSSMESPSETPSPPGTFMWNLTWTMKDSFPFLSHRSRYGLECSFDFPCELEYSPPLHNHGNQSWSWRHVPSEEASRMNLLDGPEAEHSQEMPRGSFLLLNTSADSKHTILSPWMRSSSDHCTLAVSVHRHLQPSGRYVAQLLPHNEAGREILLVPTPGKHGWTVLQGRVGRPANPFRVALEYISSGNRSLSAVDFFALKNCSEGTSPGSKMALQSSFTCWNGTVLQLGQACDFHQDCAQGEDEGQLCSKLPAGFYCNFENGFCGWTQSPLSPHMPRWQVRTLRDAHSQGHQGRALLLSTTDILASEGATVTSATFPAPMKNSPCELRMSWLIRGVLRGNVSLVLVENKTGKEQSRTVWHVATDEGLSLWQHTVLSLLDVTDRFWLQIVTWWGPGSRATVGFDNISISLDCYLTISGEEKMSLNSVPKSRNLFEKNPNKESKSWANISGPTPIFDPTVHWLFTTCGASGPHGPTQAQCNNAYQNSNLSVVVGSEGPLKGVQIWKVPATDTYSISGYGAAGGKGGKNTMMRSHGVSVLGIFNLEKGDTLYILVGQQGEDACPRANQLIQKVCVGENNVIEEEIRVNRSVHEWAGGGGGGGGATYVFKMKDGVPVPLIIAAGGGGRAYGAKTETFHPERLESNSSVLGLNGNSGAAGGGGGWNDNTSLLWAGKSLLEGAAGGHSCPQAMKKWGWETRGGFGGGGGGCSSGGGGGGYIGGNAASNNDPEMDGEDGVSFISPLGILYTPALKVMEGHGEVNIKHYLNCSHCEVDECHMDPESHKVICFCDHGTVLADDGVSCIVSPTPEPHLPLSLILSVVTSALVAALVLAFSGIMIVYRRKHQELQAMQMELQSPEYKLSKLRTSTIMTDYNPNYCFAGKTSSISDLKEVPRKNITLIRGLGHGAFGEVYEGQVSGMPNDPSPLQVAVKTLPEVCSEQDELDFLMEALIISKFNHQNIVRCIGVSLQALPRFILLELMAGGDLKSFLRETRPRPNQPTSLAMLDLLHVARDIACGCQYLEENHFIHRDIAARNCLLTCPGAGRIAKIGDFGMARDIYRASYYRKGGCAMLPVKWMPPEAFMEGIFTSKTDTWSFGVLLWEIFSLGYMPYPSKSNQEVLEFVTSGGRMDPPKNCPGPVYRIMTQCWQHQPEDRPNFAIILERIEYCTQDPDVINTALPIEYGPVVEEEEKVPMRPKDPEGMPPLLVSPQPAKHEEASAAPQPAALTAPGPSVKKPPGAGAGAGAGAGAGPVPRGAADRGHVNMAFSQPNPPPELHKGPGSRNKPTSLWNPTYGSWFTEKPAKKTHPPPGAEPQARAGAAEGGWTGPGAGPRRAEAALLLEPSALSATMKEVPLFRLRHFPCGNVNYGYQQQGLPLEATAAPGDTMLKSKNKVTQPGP
T2 sequence (P97793 19-1042): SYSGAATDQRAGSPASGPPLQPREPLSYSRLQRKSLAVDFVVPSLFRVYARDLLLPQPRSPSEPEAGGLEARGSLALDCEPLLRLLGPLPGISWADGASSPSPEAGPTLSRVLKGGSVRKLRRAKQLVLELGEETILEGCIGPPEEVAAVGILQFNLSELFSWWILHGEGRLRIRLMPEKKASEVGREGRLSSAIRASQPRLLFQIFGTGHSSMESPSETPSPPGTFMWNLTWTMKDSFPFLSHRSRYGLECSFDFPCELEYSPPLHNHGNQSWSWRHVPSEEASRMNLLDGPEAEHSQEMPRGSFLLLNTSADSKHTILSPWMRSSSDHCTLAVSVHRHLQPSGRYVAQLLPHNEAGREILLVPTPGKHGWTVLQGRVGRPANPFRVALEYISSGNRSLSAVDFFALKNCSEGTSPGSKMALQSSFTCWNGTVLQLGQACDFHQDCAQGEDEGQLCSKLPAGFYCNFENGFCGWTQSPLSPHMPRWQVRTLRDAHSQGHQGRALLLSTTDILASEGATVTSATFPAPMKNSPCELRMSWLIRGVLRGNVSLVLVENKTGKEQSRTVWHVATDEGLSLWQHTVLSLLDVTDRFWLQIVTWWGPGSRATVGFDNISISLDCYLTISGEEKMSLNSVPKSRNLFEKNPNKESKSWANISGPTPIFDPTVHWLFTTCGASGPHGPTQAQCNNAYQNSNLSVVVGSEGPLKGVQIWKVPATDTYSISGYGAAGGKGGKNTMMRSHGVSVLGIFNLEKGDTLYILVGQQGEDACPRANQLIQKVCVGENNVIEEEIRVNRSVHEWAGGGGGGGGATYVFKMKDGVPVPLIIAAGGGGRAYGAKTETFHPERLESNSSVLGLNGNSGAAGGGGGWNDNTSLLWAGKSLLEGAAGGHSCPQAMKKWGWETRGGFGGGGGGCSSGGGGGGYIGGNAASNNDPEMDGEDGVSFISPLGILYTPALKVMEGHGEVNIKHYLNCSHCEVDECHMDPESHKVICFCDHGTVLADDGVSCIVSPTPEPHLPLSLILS
Sequence of murine ALK (purified mouse ALK antigen) (P97793 19-1042 limits assumed): as the sequence (P97793 19-1042) above

B2: Ab352: humanized anti-ALK antibody; VL SEQ ID NO: 421, VH SEQ ID NO: 430 (antibody, V domains shown)
VH: EVQLVQSGPEVKKPGTSVKLSCKASGYTFTSYWMHWVRQARGQRLEWIGYIKPSSGYTKYNQKFKDRATLTADKSTSTAYMELSSLRSEDTAVYYCARDYYGSSSWFAYWGQGTLVTVSS
VL: EIVMTQSPAFLSVTPGEKVTITCKASQNVGTNVAWYQQKPDQAPKALIYSASYRYSGVPSRFSGSGSGTDFTLTISSLEAEDAATYYCQQYNSYPYMYTFGQGTKLEIK
modifications: VH domain - Ab352; VL domain - Ab351
Kd [1]: 1.4 nM
Kd [3]: 7.7 nM

B3: Ab355: humanized anti-ALK antibody; VL SEQ ID NO: 421, VH SEQ ID NO: 433 (antibody, V domains shown)
VH: B2 VH with E1Q, P9A, K12A, T16A, R38K, R41P, R44G, R67K, S84R, E89D
VL: B2 VL
modifications: VH domain - Ab355; VL domain - Ab351
Kd [1]: 1.26 nM
Kd [3]: 5.1 nM

B6: Ab323: anti-ALK monoclonal antibody; VL SEQ ID NO: 401, VH SEQ ID NO: 402 (antibody, V domains shown)
VH: QVQLQQSGAELVKPGASVKISCKTSGYTFSNYWMNWVKQRPGKGLEWIGQIFPGDADANYNGKFKGKATLTADKSSSAAFMQLSSLTSEDSAVYFCARFSYDGAFAYWGQGTLVTVS
VL: DIVMTQSHKFMSTSVGDRVSITCKASQDVSTAVAWYQQKPGQSPKPLIYWASTRHTGVPDRFTGSGSGTDYTLTISSVQTEDLALYYCQQHYSTPRTFGGGTKLEIKR
modifications: VH domain - Ab323; VL domain - Ab323
mouse ALK binding [4]: +++
Bin/Domain (bin) [5]: 1
effect on ALK activity (ALK inhibitory or ALK agonistic antibody) [6]: agonistic
ALK phosphorylation [6]: weak agonist
ALK turnover [7]: ++
effect on NB1 cell death caused by crizotinib (NB1 cells; constant amount of antibody added to crizotinib titration): partially rescued

B7: Ab327: anti-ALK monoclonal antibody; VL SEQ ID NO: 409, VH SEQ ID NO: 410 (antibody, V domains shown)
VH: DVKLVESGEGLVKPGGSLKLSCAASGFTFSSYAMSWVRQTPEKRLEWVTYISSGGDYIYYADTVKGRFTISRDNARNTLYLQMSSLKSEDTAMYYCTRERIWLRRFFDVWGTGTTVTVSS
VL: DIVMTQSQKFMSTSVGDRVSITCKASQNVGTAVAWYQLKPGQSPKLLIYSASNRFTGVPDRFTGSGSGTDFTLTISNMQSEDLADYFCQQYSSYPLTFGSGTKLEIKR
modifications: VH domain - Ab327; VL domain - Ab327
mouse ALK binding [4]: +++
Bin/Domain (bin) [5]: 2
effect on ALK activity (ALK inhibitory or ALK agonistic antibody) [6]: inhibitory
ALK phosphorylation [6]: inhibitor
ALK turnover [7]: ++
effect on the anti-proliferative effect of crizotinib (NB1 cells; co-titration of crizotinib with the antibody): enhanced

Continued, in another order:

Kd [2]: 81.5 nM
potency estimated from few doses [2]: 59 nM
Kd [3]: 7.4 nM
B1: Ab400: humanized anti-ALK antibody; VL SEQ ID NO: 425, VH SEQ ID NO: 430 (antibody, V domains shown)
VH: B2 VH
VL: EIVMTQSQATMSTSVGERATLSCKASQNVGTNVAWYQQKPGQSPKALIYSASYRYSGVPARFSGSGSGTDFTLTISSVEPEDFAVYYCQQYNSYPYMYTFGQGTKLEIK
modifications: VH domain - Ab352; VL domain - Ab399
Kd [1]: 1.3 nM

Kd [2]: 87.6 nM
potency estimated from few doses [2]: 71 nM
potency estimated from few doses (mouse ALK (mALK)): 147 nM
Kd [3]: 2.8 nM
B4: Ab402: humanized anti-ALK antibody; VL SEQ ID NO: 425, VH SEQ ID NO: 432 (antibody, V domains shown)
VH: B2 VH with P9A, N61A, K65Q, D66E, A68V
VL: B1 VL
modifications: VH domain - Ab354; VL domain - Ab399
Kd [1]: 1.5 nM

Kd [2]: 94.2 nM
potency estimated from few doses [2]: 80 nM
potency estimated from few doses (mouse ALK (mALK)): 120 nM
Kd [3]: 4.15 nM
B5: Ab403: humanized anti-ALK antibody; VL SEQ ID NO: 425, VH SEQ ID NO: 433 (antibody, V domains shown)
VH: B2 VH with E1Q, P9A, K12A, T16A, R38K, R41P, R44G, R67K, S84R, E89D
VL: B1 VL
modifications: VH domain - Ab355; VL domain - Ab399
Kd [1]: 0.73 nM
